The term Kd denotes the concentration at which binding is half-saturated. Read a high Kd as lower affinity. A word on the koff: it is the rate constant with which the complex falls apart. Read a high koff as fast dissociation. In general, kon refers to the rate constant with which the complex forms. The low end stands for slow association, the high end for fast association.

Here are results for 6 molecules from PMC5615192 (mBio, 2017).

The chains are these.
B1: HPV58 L1 pentamer R161A (natural protein)
chain: EATVYLPPVPVSKVVSTDEYVSRTSIYYYAGSSRLLAVGNPYFSIKSPNNNKKVLVPKVSGLQYRVFRVRLPDPNKFGFPDTSFYNPDTQRLVWACVGLEIGRGQPLGVGVSGHPYLNKFDDTETSNAYPAQPGSDNRECLSMDYKQTQLCLIGCKPPTGEHWGKGVACNNNAAATDCPPLELFNSIIEDGDMVDTGFGCMDFGTLQANKSDVPIDICNSTCKYPDYLKMASEPYGDSLFFFLRREQMFVRHFFNRAGKLGEAVPDDLYIKGSGNTAVIQSSAFFPTPSGSIVTSESQLFNKPYWLQRAQGHNNGICWGNQLFVTVVDTTRSTNMTLCTEVTKEGTYKNDNFKEYVRHVEEYDLQFVFQLCKITLTAEIMTYIHTMDSNILEDWQFGLTPPPSASLQDTYRFVTSQAITCQKTAPPKEKEDPLNKYTFWEVNLKEKFSADLDQFPLGRKFLLQSGLKAKPRLKRSAPTTRAPSTKRKKVKK
B2: HPV58 L1 pentamer Q165A (natural protein)
chain: EATVYLPPVPVSKVVSTDEYVSRTSIYYYAGSSRLLAVGNPYFSIKSPNNNKKVLVPKVSGLQYRVFRVRLPDPNKFGFPDTSFYNPDTQRLVWACVGLEIGRGQPLGVGVSGHPYLNKFDDTETSNRYPAAPGSDNRECLSMDYKQTQLCLIGCKPPTGEHWGKGVACNNNAAATDCPPLELFNSIIEDGDMVDTGFGCMDFGTLQANKSDVPIDICNSTCKYPDYLKMASEPYGDSLFFFLRREQMFVRHFFNRAGKLGEAVPDDLYIKGSGNTAVIQSSAFFPTPSGSIVTSESQLFNKPYWLQRAQGHNNGICWGNQLFVTVVDTTRSTNMTLCTEVTKEGTYKNDNFKEYVRHVEEYDLQFVFQLCKITLTAEIMTYIHTMDSNILEDWQFGLTPPPSASLQDTYRFVTSQAITCQKTAPPKEKEDPLNKYTFWEVNLKEKFSADLDQFPLGRKFLLQSGLKAKPRLKRSAPTTRAPSTKRKKVKK
B3: HPV58 L1 pentamer N170A (natural protein)
chain: EATVYLPPVPVSKVVSTDEYVSRTSIYYYAGSSRLLAVGNPYFSIKSPNNNKKVLVPKVSGLQYRVFRVRLPDPNKFGFPDTSFYNPDTQRLVWACVGLEIGRGQPLGVGVSGHPYLNKFDDTETSNRYPAQPGSDARECLSMDYKQTQLCLIGCKPPTGEHWGKGVACNNNAAATDCPPLELFNSIIEDGDMVDTGFGCMDFGTLQANKSDVPIDICNSTCKYPDYLKMASEPYGDSLFFFLRREQMFVRHFFNRAGKLGEAVPDDLYIKGSGNTAVIQSSAFFPTPSGSIVTSESQLFNKPYWLQRAQGHNNGICWGNQLFVTVVDTTRSTNMTLCTEVTKEGTYKNDNFKEYVRHVEEYDLQFVFQLCKITLTAEIMTYIHTMDSNILEDWQFGLTPPPSASLQDTYRFVTSQAITCQKTAPPKEKEDPLNKYTFWEVNLKEKFSADLDQFPLGRKFLLQSGLKAKPRLKRSAPTTRAPSTKRKKVKK
B4: HPV58 L1 pentamer N308A (natural protein)
chain: EATVYLPPVPVSKVVSTDEYVSRTSIYYYAGSSRLLAVGNPYFSIKSPNNNKKVLVPKVSGLQYRVFRVRLPDPNKFGFPDTSFYNPDTQRLVWACVGLEIGRGQPLGVGVSGHPYLNKFDDTETSNRYPAQPGSDNRECLSMDYKQTQLCLIGCKPPTGEHWGKGVACNNNAAATDCPPLELFNSIIEDGDMVDTGFGCMDFGTLQANKSDVPIDICNSTCKYPDYLKMASEPYGDSLFFFLRREQMFVRHFFNRAGKLGEAVPDDLYIKGSGATAVIQSSAFFPTPSGSIVTSESQLFNKPYWLQRAQGHNNGICWGNQLFVTVVDTTRSTNMTLCTEVTKEGTYKNDNFKEYVRHVEEYDLQFVFQLCKITLTAEIMTYIHTMDSNILEDWQFGLTPPPSASLQDTYRFVTSQAITCQKTAPPKEKEDPLNKYTFWEVNLKEKFSADLDQFPLGRKFLLQSGLKAKPRLKRSAPTTRAPSTKRKKVKK
B5: HPV58 L1 pentamer S168A (natural protein)
chain: EATVYLPPVPVSKVVSTDEYVSRTSIYYYAGSSRLLAVGNPYFSIKSPNNNKKVLVPKVSGLQYRVFRVRLPDPNKFGFPDTSFYNPDTQRLVWACVGLEIGRGQPLGVGVSGHPYLNKFDDTETSNRYPAQPGADNRECLSMDYKQTQLCLIGCKPPTGEHWGKGVACNNNAAATDCPPLELFNSIIEDGDMVDTGFGCMDFGTLQANKSDVPIDICNSTCKYPDYLKMASEPYGDSLFFFLRREQMFVRHFFNRAGKLGEAVPDDLYIKGSGNTAVIQSSAFFPTPSGSIVTSESQLFNKPYWLQRAQGHNNGICWGNQLFVTVVDTTRSTNMTLCTEVTKEGTYKNDNFKEYVRHVEEYDLQFVFQLCKITLTAEIMTYIHTMDSNILEDWQFGLTPPPSASLQDTYRFVTSQAITCQKTAPPKEKEDPLNKYTFWEVNLKEKFSADLDQFPLGRKFLLQSGLKAKPRLKRSAPTTRAPSTKRKKVKK
B6: HPV58 L1 pentamer D154A (natural protein)
chain: EATVYLPPVPVSKVVSTDEYVSRTSIYYYAGSSRLLAVGNPYFSIKSPNNNKKVLVPKVSGLQYRVFRVRLPDPNKFGFPDTSFYNPDTQRLVWACVGLEIGRGQPLGVGVSGHPYLNKFADTETSNRYPAQPGSDNRECLSMDYKQTQLCLIGCKPPTGEHWGKGVACNNNAAATDCPPLELFNSIIEDGDMVDTGFGCMDFGTLQANKSDVPIDICNSTCKYPDYLKMASEPYGDSLFFFLRREQMFVRHFFNRAGKLGEAVPDDLYIKGSGNTAVIQSSAFFPTPSGSIVTSESQLFNKPYWLQRAQGHNNGICWGNQLFVTVVDTTRSTNMTLCTEVTKEGTYKNDNFKEYVRHVEEYDLQFVFQLCKITLTAEIMTYIHTMDSNILEDWQFGLTPPPSASLQDTYRFVTSQAITCQKTAPPKEKEDPLNKYTFWEVNLKEKFSADLDQFPLGRKFLLQSGLKAKPRLKRSAPTTRAPSTKRKKVKK

Chain of MAb A12A3 (mouse) (heavy, as listed by the source, chain 1 of 2): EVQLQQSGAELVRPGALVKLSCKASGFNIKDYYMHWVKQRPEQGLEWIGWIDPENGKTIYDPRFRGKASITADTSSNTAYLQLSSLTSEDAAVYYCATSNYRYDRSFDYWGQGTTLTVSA
Chain of MAb A12A3 (mouse) (light, as listed by the source, chain 2 of 2): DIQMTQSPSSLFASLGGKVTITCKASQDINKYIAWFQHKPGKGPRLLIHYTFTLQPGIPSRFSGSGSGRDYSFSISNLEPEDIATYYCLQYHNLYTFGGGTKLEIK

This test has as its target MAb A12A3 (mouse). Put plainly: SPR; Biacore 3000; MAb (10 ug/ml) captured on a CM-5 chip amine coupled with goat anti-mouse Fc fragment; serially diluted pentamer injected at 30 ul/min for 3.3 min; HBS (10 mM HEPES pH 7.4, 150 mM NaCl); three measurements, mean and standard deviation. (In SPR one partner is held on a chip, and binding of the other changes the refractive index at the surface.)
B1 gave a Ka of 994000 M⁻¹, a dissociation constant (Kd) of 1120 nM, a koff of 9.98e-06 s⁻¹ and a kon of 10.1 M⁻¹ s⁻¹.
In the case of B2, the Ka was determined as 7.28e+07 M⁻¹, the Kd turned out to be 13.8 nM, the koff was found to be 0.00228 s⁻¹ and the kon was found to be 167000 M⁻¹ s⁻¹.
For B3, the Ka amounted to 1.53e+08 M⁻¹, the Kd came out at 6.52 nM, the koff was determined as 0.000644 s⁻¹ and the kon worked out at 98400 M⁻¹ s⁻¹.
For B4, in that order: 8.99e+06 M⁻¹, 112 nM, 0.0272 s⁻¹ and 243000 M⁻¹ s⁻¹.
As to B5, the Ka came out at 1.62e+08 M⁻¹, the equilibrium dissociation constant (Kd) is 6.28 nM, the koff amounted to 0.000522 s⁻¹ and the kon was determined as 54300 M⁻¹ s⁻¹.
Molecule B6 had a Ka of 4.18e+06 M⁻¹, a Kd of 240 nM, an off-rate (koff) of 0.102 s⁻¹ and an on-rate (kon) of 426000 M⁻¹ s⁻¹.
